# Source: article PMC10457309
# Biological target: HH-120 (IgM-like hACE2-Fc fusion protein) (UniProt Q9BYF1)
# Assay: SPR
substance,measurement,value
SARS-CoV-2 RBD (amino acids 316-512 of the S protein in the SARS-CoV-2 D614 strain) (from UniProt P0DTC2 316-512) (domain or fragment),Kd,26.4 nM
